In assay [1] the test system is human neutrophils. Put plainly: rhAPC binding to neutrophils in suspension (chromogenic substrate S-2366). The settings on record: 1 mM Ca2+ and 1 mM Mg2+ supplemented with 1 mM Mn2+. Here is the method:
Control (PBS) or rhAPC-treated neutrophils were incubated with the indicated concentrations of MgCl2 and CaCl2. The LIBS of β1 and β3 integrins were detected by B44 and D3 mAb, respectively. *P<0.05 vs. PBS treated cells. […] Experiments were repeated on neutrophil preparations from three independent donors. In FIGS. 2A, 2C, 2D, 2E, and 2F, results are expressed as mean±SEM of three independent experiments.
The best characterized integrin binding motif is the RGD sequence, which is present in FN, fibrinogen, von Willebrand factor, vitronectin, and a variety of other adhesion proteins. Many integrins that bind to extracellular protein ligands including α3β1, α5β1, αIIbβ3, and αVβ3, specifically interact with the RGD sequence of their target proteins. […] To test this hypothesis, rhAPC-binding assays were performed with neutrophils in suspension. The assay buffer containing 1 mM Ca^2+ and 1 mM Mg^2+ was supplemented with 1 mM Mn^2+ to activate cell surface integrins.

In another assay the test system is LPS treated mice. Put plainly: Neutrophil recruitment into airspace (BALF) after intranasal LPS. Type of assay: in vivo, mice (C57BL/6). The conditions noted are these: 10 μg/mouse i.v. 2 hours after LPS. Here is the method: Mice (C57BL/6, 6-8 weeks) were anesthetized with avertin and then intranasally administered 30 μg of LPS (Sigma-Aldrich, St. Louis, Mo.). […] Mice were sacrificed 4 hours later and bronchioalveolar lavage was harvested. Cells were fixed with 4% formaldehyde for 20 minutes. Cells were counted using microbeads (Polyscience, Niles, Ill.) by flow cytometry. Cells were stained with Gr-1 APC antibody (eBioscience, San Diego, Calif.) and collected by flow cytometry. Data were analyzed using FlowJo software (Tree Star, Ashland, Oreg.).

The test system of assay [2] is human neutrophils. Put plainly: Intracellular Ca2+ measurement (Fluo-4). It is filed as cell-based. The conditions noted are these: 10 nM fMLP. The procedure:
1×10^7 cells/ml of human neutrophils were labeled with […] Fluo-4 AM (Molecular Probes, Eugene, Oreg.) at 37° C. for 30 minutes, then at room temperature for an additional 5 to 10 minutes. After washing twice, cells were resuspended to 4×10^6 cells/ml (6 ml) in F15 and incubated at RT for de-esterification. For measurements, cells (4×10^6) were spun down in a microtube (1 ml), resuspend in 1 ml of F15 at 37° C., transferred to a quartz cuvette containing a fluorometric stir bar and 1 ml of the same buffer at 37° C., and fluorescence signals were measured in the fluorometer.

The subject of assay [3] is patients with severe sepsis. The conditions noted are these: subset of patients; cited from earlier work.
The target in a further assay is T1, α3β1 (Homo sapiens, UniProt P05556+P26006).
T1 construct: purchased US Biological, Swampscott, Mass
T1 sequence (P26006 33-872 limits assumed): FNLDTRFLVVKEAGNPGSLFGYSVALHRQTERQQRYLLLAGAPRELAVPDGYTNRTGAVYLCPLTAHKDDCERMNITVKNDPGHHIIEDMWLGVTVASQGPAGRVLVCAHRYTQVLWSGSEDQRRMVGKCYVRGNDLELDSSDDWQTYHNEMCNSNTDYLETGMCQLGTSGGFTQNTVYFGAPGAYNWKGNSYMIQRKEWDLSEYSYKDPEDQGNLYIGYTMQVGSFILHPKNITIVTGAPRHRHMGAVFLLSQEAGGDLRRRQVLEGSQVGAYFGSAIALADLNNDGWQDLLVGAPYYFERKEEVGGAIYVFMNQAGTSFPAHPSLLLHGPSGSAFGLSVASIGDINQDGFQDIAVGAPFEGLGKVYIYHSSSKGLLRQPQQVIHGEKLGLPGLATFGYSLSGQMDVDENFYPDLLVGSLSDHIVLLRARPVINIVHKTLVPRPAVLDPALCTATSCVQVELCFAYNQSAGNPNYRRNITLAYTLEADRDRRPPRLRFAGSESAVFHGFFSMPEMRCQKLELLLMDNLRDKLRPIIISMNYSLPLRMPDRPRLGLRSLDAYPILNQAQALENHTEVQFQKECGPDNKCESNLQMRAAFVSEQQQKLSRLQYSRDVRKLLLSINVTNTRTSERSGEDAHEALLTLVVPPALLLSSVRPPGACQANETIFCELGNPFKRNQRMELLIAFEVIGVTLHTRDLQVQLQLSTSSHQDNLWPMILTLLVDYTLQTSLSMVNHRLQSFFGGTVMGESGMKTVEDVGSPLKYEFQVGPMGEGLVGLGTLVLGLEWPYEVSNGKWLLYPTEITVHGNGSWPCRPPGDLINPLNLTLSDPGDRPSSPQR
T1 sequence (P26006 876-1051 partner limits assumed): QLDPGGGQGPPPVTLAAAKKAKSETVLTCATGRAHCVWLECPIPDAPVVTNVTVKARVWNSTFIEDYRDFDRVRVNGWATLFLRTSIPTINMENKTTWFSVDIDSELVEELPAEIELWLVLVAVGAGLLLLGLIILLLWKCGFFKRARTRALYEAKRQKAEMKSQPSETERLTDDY
T1 sequence (P05556 21-798): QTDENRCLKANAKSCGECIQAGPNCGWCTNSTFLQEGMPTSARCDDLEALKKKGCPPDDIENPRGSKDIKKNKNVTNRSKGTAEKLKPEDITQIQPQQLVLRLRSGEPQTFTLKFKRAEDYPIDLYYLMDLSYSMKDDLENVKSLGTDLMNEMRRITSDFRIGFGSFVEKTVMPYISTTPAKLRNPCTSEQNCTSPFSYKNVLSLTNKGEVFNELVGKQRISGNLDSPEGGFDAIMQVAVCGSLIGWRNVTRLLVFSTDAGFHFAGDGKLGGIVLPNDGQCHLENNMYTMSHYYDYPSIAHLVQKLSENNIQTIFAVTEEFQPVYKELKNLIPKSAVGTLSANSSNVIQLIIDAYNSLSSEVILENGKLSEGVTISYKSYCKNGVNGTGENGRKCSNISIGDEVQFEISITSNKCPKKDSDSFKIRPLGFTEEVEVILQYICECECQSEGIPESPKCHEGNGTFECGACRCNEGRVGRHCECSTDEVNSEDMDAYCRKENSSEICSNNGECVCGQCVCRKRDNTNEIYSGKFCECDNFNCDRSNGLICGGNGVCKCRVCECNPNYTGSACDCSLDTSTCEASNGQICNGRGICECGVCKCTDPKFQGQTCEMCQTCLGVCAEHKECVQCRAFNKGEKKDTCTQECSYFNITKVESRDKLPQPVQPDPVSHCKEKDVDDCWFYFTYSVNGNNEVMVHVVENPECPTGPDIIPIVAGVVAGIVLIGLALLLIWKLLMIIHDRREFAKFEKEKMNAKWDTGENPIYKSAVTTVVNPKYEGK
The assay can be described thus: Solid phase integrin ligand binding assay. The settings on record: 1 mM Mn2+, 1 mM Ca2+, 1 mM Mg2+. The procedure: (§1) The solid phase binding assay was performed using purified soluble human α3β1, α5β1, and αVβ3 (US Biological, Swampscott, Mass.). Two (2) μg/ml of soluble integrins were added to microtiter wells for capture with immobilized monoclonal antibody against β1 or β3 subunits (mAb TS2/6 for β1 and mAb BB10 (Chemicon, Temecula, Calif.) for β3 integrins). […] After washing, bound APC was chromogenically detected by peroxidase-streptavidin conjugate anti-PC (Diapharma, West Chester, Ohio) or chromogenic substrate S-2366 (Diapharma, West Chester, Ohio). To minimize dissociation, all wash buffers contained 1 mM Mn^2+, and <15 minutes elapsed between the end of binding and beginning of color development. Functional blocking antibodies for integrins were from Chemicon (Temecula, Calif.).
(§2) Among the neutrophil integrins that recognize the RGD motif, α3β1, α5β1, and αVβ3 are key in regulating neutrophil chemotaxis (Yauch et al., Mol. Biol. Cell 9:2751 (1998); Burns et al., J. Immunol. 166:4644 (2001); Sixt et al., J. Biol. Chem. 276:18878 (2001)). To test whether APC can bind directly to the integrins, an ELISA-like solid phase receptor-binding assay was performed (FIG. 2E). Soluble α3β1, α5β1, and αVβ3 were captured onto microtiter wells using mAbs specific for β1 or β3.

A further assay has as its target T2, α5β1 (Homo sapiens, UniProt P05556+P08648).
T2 construct: purchased US Biological, Swampscott, Mass
The assay can be described thus: Solid phase integrin ligand binding assay. The conditions noted are these: 1 mM Mn2+, 1 mM Ca2+, 1 mM Mg2+. The procedure:
as §1, §2

The target in another assay is T3, αVβ3 (Homo sapiens, UniProt P05106+P06756).
T3 construct: purchased US Biological, Swampscott, Mass
T3 sequence (P06756 31-889 limits assumed): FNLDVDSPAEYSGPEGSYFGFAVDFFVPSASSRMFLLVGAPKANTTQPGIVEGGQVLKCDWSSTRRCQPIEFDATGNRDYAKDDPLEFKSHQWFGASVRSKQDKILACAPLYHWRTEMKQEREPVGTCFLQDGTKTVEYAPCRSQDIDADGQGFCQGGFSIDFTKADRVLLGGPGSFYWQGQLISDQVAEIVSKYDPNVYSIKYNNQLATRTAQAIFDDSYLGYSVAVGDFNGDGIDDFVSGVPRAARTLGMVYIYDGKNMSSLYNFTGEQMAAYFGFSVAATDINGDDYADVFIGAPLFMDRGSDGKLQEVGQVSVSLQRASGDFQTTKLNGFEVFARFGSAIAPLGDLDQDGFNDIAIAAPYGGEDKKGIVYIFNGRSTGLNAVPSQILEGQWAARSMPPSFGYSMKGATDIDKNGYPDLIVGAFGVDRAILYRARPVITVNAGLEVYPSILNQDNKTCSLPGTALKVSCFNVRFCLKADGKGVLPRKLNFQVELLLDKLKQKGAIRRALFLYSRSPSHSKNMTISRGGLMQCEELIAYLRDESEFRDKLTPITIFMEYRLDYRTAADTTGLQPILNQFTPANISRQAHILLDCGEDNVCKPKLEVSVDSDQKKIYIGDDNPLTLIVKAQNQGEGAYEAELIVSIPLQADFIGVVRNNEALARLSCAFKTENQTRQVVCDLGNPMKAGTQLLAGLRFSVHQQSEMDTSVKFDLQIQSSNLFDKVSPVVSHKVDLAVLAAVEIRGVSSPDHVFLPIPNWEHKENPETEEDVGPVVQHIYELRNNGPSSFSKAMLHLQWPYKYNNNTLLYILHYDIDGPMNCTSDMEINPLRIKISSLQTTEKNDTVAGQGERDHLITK
T3 sequence (P06756 891-1048 partner limits assumed): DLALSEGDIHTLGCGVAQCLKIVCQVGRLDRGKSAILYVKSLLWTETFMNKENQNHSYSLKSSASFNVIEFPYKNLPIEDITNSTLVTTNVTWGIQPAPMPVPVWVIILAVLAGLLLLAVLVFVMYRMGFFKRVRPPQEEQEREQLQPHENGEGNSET
T3 sequence (P05106 27-788): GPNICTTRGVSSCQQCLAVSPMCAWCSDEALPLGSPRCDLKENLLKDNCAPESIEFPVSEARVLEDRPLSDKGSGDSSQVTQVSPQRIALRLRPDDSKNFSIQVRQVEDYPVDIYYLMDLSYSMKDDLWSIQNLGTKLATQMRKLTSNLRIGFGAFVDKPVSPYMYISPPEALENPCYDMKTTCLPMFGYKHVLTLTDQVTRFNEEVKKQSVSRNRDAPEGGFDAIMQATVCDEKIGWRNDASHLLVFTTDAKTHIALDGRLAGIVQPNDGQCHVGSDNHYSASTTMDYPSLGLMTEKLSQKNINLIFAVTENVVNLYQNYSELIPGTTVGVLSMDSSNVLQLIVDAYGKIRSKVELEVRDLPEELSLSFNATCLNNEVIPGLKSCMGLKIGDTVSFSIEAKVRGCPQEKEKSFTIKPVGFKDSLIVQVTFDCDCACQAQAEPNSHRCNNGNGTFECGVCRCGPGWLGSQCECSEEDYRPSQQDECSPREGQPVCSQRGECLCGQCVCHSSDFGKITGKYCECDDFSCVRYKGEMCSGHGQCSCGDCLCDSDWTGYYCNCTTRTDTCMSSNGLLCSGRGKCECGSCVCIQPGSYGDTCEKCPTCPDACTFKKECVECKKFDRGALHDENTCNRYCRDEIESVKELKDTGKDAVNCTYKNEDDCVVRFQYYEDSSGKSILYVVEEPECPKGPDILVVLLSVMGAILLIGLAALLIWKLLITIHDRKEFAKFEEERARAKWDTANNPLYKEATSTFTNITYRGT
Put plainly: Solid phase integrin ligand binding assay. The conditions noted are these: 1 mM Mn2+, 1 mM Ca2+, 1 mM Mg2+. The procedure: as §1, §2

The test system of a further assay is neutrophil. The settings on record: without any protein coatings; cited from earlier work.
Assay [4] concerns human neutrophils. The assay can be described thus: Neutrophil adhesion assay on immobilized fibronectin (FN). Type of assay: cell-based. The settings on record: 10 μg/ml protein. The procedure: The adhesion assay was carried out essentially as described (Vorup-Jensen et al., PNAS 102:1614 (2005)). Cover slips were coated with FN in coating buffer (150 mM NaCl/20 mM Tris.HCl, pH 9.0) for over night at 4° C. and for 4 hours at room temperature. Residual binding sites were blocked by incubation of the wells with 0.05% (wt/vol) polyvinylpyrrolidone in PBS for 30 minutes at room temperature. […] The cover slips were aspirated, and washed with L15 medium. […] Cells (250 μl) were then immediately added, and further incubated at 37° C. for 15 minutes. Unbound cells were then washed with warm L15 medium. The bound cells were then fixed with formaldehyde. For each experimental condition from three independent donors, five random phase-contrast images were obtained, and the number of cells in each well was scored from printed micrographs.

“Also recorded” adds a separate entry of the source.

T2 sequence (P08648 42-894 limits assumed): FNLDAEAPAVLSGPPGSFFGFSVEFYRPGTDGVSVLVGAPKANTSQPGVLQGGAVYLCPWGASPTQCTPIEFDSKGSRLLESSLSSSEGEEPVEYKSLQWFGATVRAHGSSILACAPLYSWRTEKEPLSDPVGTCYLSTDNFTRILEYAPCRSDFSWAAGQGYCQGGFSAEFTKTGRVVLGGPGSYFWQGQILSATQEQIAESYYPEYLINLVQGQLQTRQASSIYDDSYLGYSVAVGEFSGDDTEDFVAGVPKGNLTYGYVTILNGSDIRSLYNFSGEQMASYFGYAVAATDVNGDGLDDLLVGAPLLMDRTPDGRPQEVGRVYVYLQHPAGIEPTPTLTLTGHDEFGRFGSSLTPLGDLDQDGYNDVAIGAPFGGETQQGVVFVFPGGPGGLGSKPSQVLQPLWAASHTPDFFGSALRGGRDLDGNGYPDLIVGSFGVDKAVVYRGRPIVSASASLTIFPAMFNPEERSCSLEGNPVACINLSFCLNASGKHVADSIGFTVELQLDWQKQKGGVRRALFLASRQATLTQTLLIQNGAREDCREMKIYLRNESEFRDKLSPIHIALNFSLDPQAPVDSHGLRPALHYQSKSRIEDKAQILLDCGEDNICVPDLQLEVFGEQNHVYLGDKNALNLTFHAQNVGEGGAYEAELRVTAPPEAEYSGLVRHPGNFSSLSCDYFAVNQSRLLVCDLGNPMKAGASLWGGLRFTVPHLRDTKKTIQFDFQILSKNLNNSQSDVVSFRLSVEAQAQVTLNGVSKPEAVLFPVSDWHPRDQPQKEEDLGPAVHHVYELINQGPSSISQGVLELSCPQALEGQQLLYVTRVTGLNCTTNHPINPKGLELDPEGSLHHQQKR
T2 sequence (P08648 895-1049 partner limits assumed): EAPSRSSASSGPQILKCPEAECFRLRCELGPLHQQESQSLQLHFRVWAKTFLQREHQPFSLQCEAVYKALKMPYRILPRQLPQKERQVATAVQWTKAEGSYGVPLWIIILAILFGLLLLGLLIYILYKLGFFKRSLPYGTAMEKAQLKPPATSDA
T2 sequence (P05556 21-798): as the sequence (P05556 21-798) above

B1: rhAPC: Recombinant human activated protein C obtained from Eli Lilly; FDA-approved drug for severe sepsis (protein)
chain 1: ANSFLEELRHSSLERECIEEICDFEEAKEIFQNVDDTLAFWSKHVDGDQCLVLPLEHPCASLCCGHGTCIDGIGSFSCDCRSGWEGRFCQREVSFLNCSLDNGGCTHYCLEEVGWRRCSCAPGYKLGDDLLQCHPAVKFPCGRPWKRMEKKRSHL
chain 2: LIDGKMTRRGDSPWQVVLLDSKKKLACGAVLIHPSWVLTAAHCMDESKKLLVRLGEYDLRRWEKWELDLDIKEVFVHPNYSKSTTDNDIALLHLAQPATLSQTIVPICLPDSGLAERELNQAGQETLVTGWGYHSSREKEAKRNRTFVLNFIKIPVVPHNECSEVMSNMVSENMLCAGILGDRQDACEGDSGGPMVASFHGTWFLVGLVSWGEGCGLLHNYGVYTKVSRYLDWIHGHIRDKEAPQKSWAP
In the case of B1, the “rhAPC binding to the neutrophil surface” value in the assay on human neutrophils [1] was “significantly increased”. For the same molecule, in the assay on LPS treated mice, the “neutrophil recruitment in the BALF” value is “significantly reduced”. Besides, in the assay with human neutrophils [2], the “increase in intracellular Ca2+ concentration by fMLP treatment” value is on record as “had no effect”. Moreover, in assay [3], the “mortality in patients with severe sepsis” value is on record as “significantly reduced”. In the assay with α3β1, the “direct binding to soluble α3β1” value is on record as “bound”. In addition, the “direct binding to soluble α5β1” value with α5β1 is recorded as “bound”. In the assay with αVβ3, the “direct binding to soluble αVβ3” value is “bound”. Moreover, the “neutrophil migration through nitrocellulose micropore filter” value in the assay on neutrophil is on record as “inhibited”. Also, the “fMLP-induced adhesion of human neutrophils to immobilized FN” value in the assay on human neutrophils [4] is “significantly reduced; also recorded: abolished”.

Source of the values: patent publication US8916149B2, “Preventing and treating sepsis” (University of Rochester, priority 2008, dated 2014).
